The record followed here is paper PMC10090177.

A word on the stoichiometry N: it is the number of molecules, sites or subunits per partner or assembly.

Common to all, as to assay: cryo-EM structure; purified SGIV virions; icosahedral capsid, block-based reconstruction at 3.5 Å; atomic model of one asymmetric unit
Assay [1] deals with Singapore grouper iridovirus major capsid protein VP72 (Singapore grouper iridovirus (SGIV)).
Assay [2] deals with Singapore grouper iridovirus penton protein VP14 (Singapore grouper iridovirus (SGIV)).
Assay [3] concerns the target Singapore grouper iridovirus zip protein VP38 (P1) (Singapore grouper iridovirus (SGIV)).

In assay [1], “Singapore grouper iridovirus major capsid protein VP72 (natural protein)” gave a stoichiometry N of 3.

For “Singapore grouper iridovirus penton protein VP14 (natural protein)”, in assay [2], the stoichiometry N amounted to 5.

Regarding “Singapore grouper iridovirus zip protein VP38 (P1) (natural protein)”, the stoichiometry N in assay [3] was determined as 2.
